Bridge positions count the residues as written; N and C are the ends. Square brackets hold non-standard residues; d marks the D form. Primed or numbered codes have the meaning given here. hArg = N=C(N)NCCCC[C@H](N)C(=O)O; Hyp′ = 3-hydroxyproline
Tests used:
[1] = target: T1, proprotein convertase subtilisin/kexin type 9 (PCSK9) (human, UniProt Q8NBP7 31-692); experiment: cell-based or functional assay
[2] = target: T2, PCSK9Δhelix (human, Chemically biotinylated in the phage ELISAs; the site is not given.); experiment: phage competition ELISA against phage-displayed Pep2-8 (Φpep2-8)
T2 construct: construct M1-Q692 with engineered TEV site, cleaved by TEV; also called His-PCSK9Δhelix; open groove PCSK9Δhelix

[3] = target: T2, PCSK9Δhelix; experiment: phage competition ELISA against phage-displayed K9gvpep4 (ΦK9gvpep4)
[4] = target: T1, proprotein convertase subtilisin/kexin …; experiment: phage spot ELISA; first of two rows with this extension
[5] = target: T2, PCSK9Δhelix; experiment: as above
[6] = target: T1, proprotein convertase subtilisin/kexin …; experiment: phage spot ELISA; second of two rows with this extension
[7] = target: T2, PCSK9Δhelix; experiment: as above
[8] = target: T2, PCSK9Δhelix; experiment: Ab20 TR-FRET competition and SPR
[9] = target: T2, PCSK9Δhelix; experiment: SPR
[10] = target: T1, proprotein convertase subtilisin/kexin …; experiment: SPR
[11] = target: T1, proprotein convertase subtilisin/kexin …; experiment: TR-FRET competition (Table 11)
[12] = target: T3, PCSK9 (proprotein convertase subtilisin/kexin type 9), His-tagged, full-length (human, UniProt Q8NBP7 31-692); experiment: TR-FRET competition; competitor EGF(A)-Fc binding to His-PCSK9
T3 construct: Captured by the His tag (SPR Methods 1 and 2), amine-coupled (Method 3), or His-tagged in TR-FRET; also called His-PCSK9

[13] = target: T4, PCSK9Δhelix (human, UniProt Q8NBP7 31-152; Q8NBP7 168-692); experiment: TR-FRET competition; competitor Ab20 binding to His-PCSK9Δhelix
T4 construct: Made by TEV cleavage of human PCSK9 M1-Q692 with an engineered TEV site; The new N-terminus of the catalytic domain is S-A168; also called His-PCSK9Δhelix; PCSK9 lacking the P' helix

[14] = target: T3, PCSK9 (proprotein convertase …); experiment: SPR, Method 2 (Biacore T100, NTA capture, single cycle kinetics)
[15] = target: T4, PCSK9Δhelix; experiment: as above
[16] = target: T5, His-tagged, full-length human PCSK9 (proprotein convertase subtilisin/kexin type 9) (human, UniProt A8T644 31-152; Q8NBP7 153-692); experiment: TR-FRET competition; His-PCSK9 with EGF(A)-Fc as competitor ligand
T5 construct: also called His-PCSK9; C-terminal (His)8-tagged PCSK9

[17] = target: T6, PCSK9Δhelix (human PCSK9 lacking the P' helix, His-tagged) (human, UniProt Q8NBP7 31-152; Q8NBP7 168-692); experiment: TR-FRET competition; His-PCSK9Δhelix with Ab20 as competitor ligand
T6 construct: Construct M1-Q692 with an engineered TEV site (Y166 and R167 deleted, ENLYFQS inserted between R165 and A168); also called His-PCSK9Δhelix; C-terminal (His)8-tagged PCSK9Δhelix
T6 sequence (Q8NBP7 31-152, stated change not applied, chain 1 of 2): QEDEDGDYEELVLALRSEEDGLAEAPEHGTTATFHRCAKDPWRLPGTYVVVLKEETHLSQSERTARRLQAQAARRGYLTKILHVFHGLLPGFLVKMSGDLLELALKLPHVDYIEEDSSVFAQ
T6 sequence (Q8NBP7 other isoform, or with tags, fused parts or gaps mutant, chain 2 of 2): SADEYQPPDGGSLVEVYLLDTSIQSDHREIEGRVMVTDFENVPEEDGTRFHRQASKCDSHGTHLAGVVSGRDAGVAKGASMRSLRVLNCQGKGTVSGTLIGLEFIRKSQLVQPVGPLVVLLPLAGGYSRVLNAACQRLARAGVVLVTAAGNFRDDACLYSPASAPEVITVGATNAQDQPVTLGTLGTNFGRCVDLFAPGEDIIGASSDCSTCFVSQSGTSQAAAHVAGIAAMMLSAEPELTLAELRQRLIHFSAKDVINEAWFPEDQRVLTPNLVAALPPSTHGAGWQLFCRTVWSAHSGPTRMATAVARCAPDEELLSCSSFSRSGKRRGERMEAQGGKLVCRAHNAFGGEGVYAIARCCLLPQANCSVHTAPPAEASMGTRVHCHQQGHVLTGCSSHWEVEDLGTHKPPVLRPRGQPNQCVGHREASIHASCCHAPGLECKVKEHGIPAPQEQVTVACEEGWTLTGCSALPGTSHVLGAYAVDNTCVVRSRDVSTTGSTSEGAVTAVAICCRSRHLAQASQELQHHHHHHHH

T1 sequence (Q8NBP7 other isoform, or with tags, fused parts or gaps limits assumed): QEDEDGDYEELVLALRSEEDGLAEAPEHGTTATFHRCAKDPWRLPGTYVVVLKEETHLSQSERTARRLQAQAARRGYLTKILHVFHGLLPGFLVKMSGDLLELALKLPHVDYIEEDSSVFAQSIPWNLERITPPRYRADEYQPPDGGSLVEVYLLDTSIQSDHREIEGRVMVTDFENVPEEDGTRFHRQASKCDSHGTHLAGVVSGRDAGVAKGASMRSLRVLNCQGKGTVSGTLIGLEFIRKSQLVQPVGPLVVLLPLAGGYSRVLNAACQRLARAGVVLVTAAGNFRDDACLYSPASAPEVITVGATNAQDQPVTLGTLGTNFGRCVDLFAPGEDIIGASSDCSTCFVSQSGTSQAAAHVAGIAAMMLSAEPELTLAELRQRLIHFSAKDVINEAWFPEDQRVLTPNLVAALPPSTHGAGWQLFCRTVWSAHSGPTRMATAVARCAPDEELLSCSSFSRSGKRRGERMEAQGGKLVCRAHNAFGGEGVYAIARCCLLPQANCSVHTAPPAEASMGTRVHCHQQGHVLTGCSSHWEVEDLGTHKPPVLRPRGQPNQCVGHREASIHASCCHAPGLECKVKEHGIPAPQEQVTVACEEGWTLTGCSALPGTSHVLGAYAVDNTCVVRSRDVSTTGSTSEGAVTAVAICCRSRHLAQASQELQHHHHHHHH
T2 sequence (prodomain, as listed by the source mutant limits assumed, chain 1 of 2): as the sequence (Q8NBP7 31-152, stated change not applied, chain 1 of 2) above
T4 sequence (Q8NBP7 31-152, stated change not applied, chain 1 of 2): as above
T4 sequence (Q8NBP7 other isoform, or with tags, fused parts or gaps mutant, chain 2 of 2): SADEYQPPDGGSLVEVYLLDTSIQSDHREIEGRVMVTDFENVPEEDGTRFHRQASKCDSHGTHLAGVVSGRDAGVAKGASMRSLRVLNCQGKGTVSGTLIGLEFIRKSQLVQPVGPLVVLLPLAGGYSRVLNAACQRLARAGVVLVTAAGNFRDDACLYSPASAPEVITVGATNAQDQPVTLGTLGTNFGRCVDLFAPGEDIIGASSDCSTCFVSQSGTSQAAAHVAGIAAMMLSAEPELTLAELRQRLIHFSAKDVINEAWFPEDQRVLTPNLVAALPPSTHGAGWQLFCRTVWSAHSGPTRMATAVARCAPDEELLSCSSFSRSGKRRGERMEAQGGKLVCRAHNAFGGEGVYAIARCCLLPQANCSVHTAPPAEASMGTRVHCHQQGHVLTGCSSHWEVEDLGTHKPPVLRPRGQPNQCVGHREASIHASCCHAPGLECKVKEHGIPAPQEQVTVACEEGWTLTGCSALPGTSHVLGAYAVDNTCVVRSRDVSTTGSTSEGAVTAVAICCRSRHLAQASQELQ
T3 sequence (Q8NBP7 31-692 limits assumed): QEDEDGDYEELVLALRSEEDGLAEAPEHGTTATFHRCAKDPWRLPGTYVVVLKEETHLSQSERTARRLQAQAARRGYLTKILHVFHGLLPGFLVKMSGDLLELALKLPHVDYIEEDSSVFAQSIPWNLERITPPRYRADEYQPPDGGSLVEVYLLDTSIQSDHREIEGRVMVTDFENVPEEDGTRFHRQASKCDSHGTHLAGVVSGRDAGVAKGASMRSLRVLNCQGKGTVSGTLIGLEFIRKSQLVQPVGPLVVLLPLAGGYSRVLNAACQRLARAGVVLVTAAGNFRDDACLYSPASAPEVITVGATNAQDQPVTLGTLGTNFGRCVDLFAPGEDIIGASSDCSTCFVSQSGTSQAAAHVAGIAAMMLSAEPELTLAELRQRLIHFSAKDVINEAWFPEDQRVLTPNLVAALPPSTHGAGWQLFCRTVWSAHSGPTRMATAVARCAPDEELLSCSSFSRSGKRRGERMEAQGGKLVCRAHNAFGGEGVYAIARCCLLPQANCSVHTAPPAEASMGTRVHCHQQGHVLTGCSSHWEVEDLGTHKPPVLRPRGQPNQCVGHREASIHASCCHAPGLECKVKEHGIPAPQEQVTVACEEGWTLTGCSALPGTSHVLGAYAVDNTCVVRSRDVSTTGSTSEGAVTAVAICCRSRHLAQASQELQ
T5 sequence (A8T644 31-152, chain 1 of 2): as the sequence (Q8NBP7 31-152, stated change not applied, chain 1 of 2) above
T5 sequence (A8T644 other isoform, or with tags, fused parts or gaps, chain 2 of 2): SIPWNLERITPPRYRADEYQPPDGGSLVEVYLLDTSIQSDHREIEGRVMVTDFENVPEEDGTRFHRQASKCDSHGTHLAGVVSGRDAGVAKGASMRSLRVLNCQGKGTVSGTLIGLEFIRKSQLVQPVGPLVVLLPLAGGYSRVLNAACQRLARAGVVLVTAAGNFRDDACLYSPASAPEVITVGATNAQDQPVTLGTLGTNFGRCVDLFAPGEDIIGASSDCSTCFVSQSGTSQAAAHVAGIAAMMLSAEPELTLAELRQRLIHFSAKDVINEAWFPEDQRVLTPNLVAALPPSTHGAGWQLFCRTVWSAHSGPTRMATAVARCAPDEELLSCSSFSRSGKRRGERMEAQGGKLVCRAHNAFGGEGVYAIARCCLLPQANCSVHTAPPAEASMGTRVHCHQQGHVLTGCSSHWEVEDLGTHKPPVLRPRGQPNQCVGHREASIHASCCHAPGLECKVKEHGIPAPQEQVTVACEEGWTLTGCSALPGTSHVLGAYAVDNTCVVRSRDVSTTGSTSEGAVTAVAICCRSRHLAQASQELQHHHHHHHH

B1: Compound 19 (peptide)
peptide: Ac-TVFTSWEEYLDWVGSGCRLPWNLQRIGLPC-NH2
modifications: disulfide 17-30 (inferred)
notes: also called Pep2-8p4; Pep2-8_K9gvpep4
For B1, the “concentration restoring LDLR levels on HepG2 cells to 50% (EC50)” value [1] was about 500 nM, the IC50 [2] was 2.92 nM and the IC50 [3] was 5.65 nM.

B2: SEQ ID NO 308 (peptide)
peptide: TAFTSWEEYLDWVGSGVLWNHSRI
In the case of B2, the ELISA [4] is reported as 2.74, the s/n ratio [4] is reported as 24.9 and the ELISA [5] is reported as 2.82. For the same binder, the s/n ratio [5] was 26.4, the ELISA [6] was 3 and the s/n ratio [6] was 29.7. It also gave an ELISA [7] of 2.91 and a s/n ratio [7] of 31.3.

B3: Compound 53 (peptide)
peptide: Ac-WNLVRIGLLR-NH2
For B3, the “fold reduction of binding affinity on elimination of Pro4” value [8] was 10 fold.

B4: Compound 192 (peptide)
peptide: Ac-WNLV[hArg]IGLLR-NH2
For B4, the “fold improvement of binding affinity by homo-arginine substitution (against Compound 53)” value [9] was 14 fold.

B5: Compound 228 (peptide)
peptide: Ac-SFAFPGWNLV[hArg]IGLLR-NH2
SMILES: CC[C@H](C)[C@H](NC(=O)[C@H](CCCCNC(=N)N)NC(=O)[C@@H](NC(=O)[C@H](CC(C)C)NC(=O)[C@H](CC(N)=O)NC(=O)[C@H](Cc1c[nH]c2ccccc12)NC(=O)CNC(=O)[C@@H]1CCCN1C(=O)[C@H](Cc1ccccc1)NC(=O)[C@H](C)NC(=O)[C@H](Cc1ccccc1)NC(=O)[C@H](CO)NC(C)=O)C(C)C)C(=O)NCC(=O)N[C@@H](CC(C)C)C(=O)N[C@@H](CC(C)C)C(=O)N[C@@H](CCCNC(=N)N)C(N)=O
B5 showed a Kd [10] of 2800 nM.

B6: Compound 227 (peptide)
peptide: Ac-ESFPGWNLV[hArg]IGLLR-NH2
SMILES: CC[C@H](C)[C@H](NC(=O)[C@H](CCCCNC(=N)N)NC(=O)[C@@H](NC(=O)[C@H](CC(C)C)NC(=O)[C@H](CC(N)=O)NC(=O)[C@H](Cc1c[nH]c2ccccc12)NC(=O)CNC(=O)[C@@H]1CCCN1C(=O)[C@H](Cc1ccccc1)NC(=O)[C@H](CO)NC(=O)[C@H](CCC(=O)O)NC(C)=O)C(C)C)C(=O)NCC(=O)N[C@@H](CC(C)C)C(=O)N[C@@H](CC(C)C)C(=O)N[C@@H](CCCNC(=N)N)C(N)=O
B6 was tested, and the “fold lower inhibitory activity against Compound 229” value [11] was about 3 fold.

B7: Compound 2 (peptide)
peptide: Ac-TVFTSWEEYLDWVGSGCWNLKRIGSQGC-NH2
modifications: disulfide 17-28
SMILES: CC[C@H](C)[C@@H]1NC(=O)[C@H](CCCNC(=N)N)NC(=O)[C@H](CCCCN)NC(=O)[C@H](CC(C)C)NC(=O)[C@H](CC(N)=O)NC(=O)[C@H](Cc2c[nH]c3ccccc23)NC(=O)[C@@H](NC(=O)CNC(=O)[C@H](CO)NC(=O)CNC(=O)[C@@H](NC(=O)[C@H](Cc2c[nH]c3ccccc23)NC(=O)[C@H](CC(=O)O)NC(=O)[C@H](CC(C)C)NC(=O)[C@H](Cc2ccc(O)cc2)NC(=O)[C@H](CCC(=O)O)NC(=O)[C@H](CCC(=O)O)NC(=O)[C@H](Cc2c[nH]c3ccccc23)NC(=O)[C@H](CO)NC(=O)[C@@H](NC(=O)[C@H](Cc2ccccc2)NC(=O)[C@@H](NC(=O)[C@@H](NC(C)=O)[C@@H](C)O)C(C)C)[C@@H](C)O)C(C)C)CSSC[C@@H](C(N)=O)NC(=O)CNC(=O)[C@H](CCC(N)=O)NC(=O)[C@H](CO)NC(=O)CNC1=O
notes: Disulfide C17-C28
B7 showed an IC50 [12] of 110 nM, an IC50 [13] of 4 nM and a Kd [14] of 30.3 nM. The Kd [15] was 1.87 nM.

B8: Compound 23 (peptide)
peptide: Ac-SPCRVGYTPC-NH2
modifications: disulfide 3-10
SMILES: CC(=O)N[C@@H](CO)C(=O)N1CCC[C@H]1C(=O)N[C@H]1CSSC[C@@H](C(N)=O)NC(=O)[C@@H]2CCCN2C(=O)[C@H]([C@@H](C)O)NC(=O)[C@H](Cc2ccc(O)cc2)NC(=O)CNC(=O)[C@H](C(C)C)NC(=O)[C@H](CCCNC(=N)N)NC1=O
notes: Two Cys
Work on B8 yielded a Kd [14] of 5740 nM and a Kd [15] of 754 nM.

B9: Compound 242: Ac-SG-CFI(Hyp)WNLQRIGLLC-NH2 (peptide)
peptide: Ac-SGCFI[Hyp′]WNLQRIGLLC-NH2
modifications: disulfide 3-16 (inferred)
notes: Has two Cys (positions 3 and 16)
With B9 the IC50 [16] was at least 50000 nM and the IC50 [17] was 31000 nM.
